# According to the supplement of paper PMC10201428:
# ± gives the standard deviation of the averaged measurements.
# Tests used:
# [1] = test system: VchCAST RNA-guided transposition machinery (E. coli BL21(DE3) host, lacZ target); test: relative integration efficiency (T-RL orientation) vs wild-type transposon end (log2 (normalized fold change)); transposon end mutated: right end (5 bp flank + 75 bp right end); higher = more efficient transposition
# How it was run: (§1)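 Relative integration efficiency is a fold change of output over input barcode abundance, normalised to reference barcodes and log-transformed. Input plasmids and genomic integration junctions were PCR-amplified and Illumina-sequenced from E. coli BL21(DE3) co-transformed with a T7-driven effector plasmid and pUC57 donor pools of 1549 left-end or 1849 right-end transposon variants. Plating was done with 0.1 mM IPTG at 37°C for 18 h, with two biological output replicates and four reference barcodes.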
# [2] = test system: VchCAST RNA-guided transposition machinery (E. coli BL21(DE3) host, lacZ target); test: relative integration efficiency (T-LR orientation) vs wild-type transposon end (log2 (normalized fold change)); transposon end mutated: right end (5 bp flank + 75 bp right end); higher = more efficient transposition
# How it was run: as §1
Sequence,relative integration efficiency (log2) [1],relative integration efficiency (log2) [2]
ACATTTGTTGATACAACCATAAGTTGATATTTTCACCCATAAATTGATATTGCTCACAACCATAAAATGATAATTACTCTGATCATAGTCAGACCAACATTGCTACGACCCGTATTCGCACCGACAC,-0.631 ± 0.13,-0.0881 ± 0.35
ACATTTGTTGATACAACCATAAAATGATAATTAATAATTATTTATACACCCATAAATTGATAATTATCAACAAACGCCCGGTCGCGGTACTCTGATCATAGTCAGACCAACATTGCTACGACCCGTA,-3.12 ± 0.48,0.401 ± 0.042
ACATTTGTTGATACAACCATTTAATGATAATTACACCCATAAATTGATAATTATCACACCCATAAATTGATATTGCCTCTGATCATAGTCAGACCAACATTGCTACGACCCGTATTCGCACCGACAC,-0.195 ± 0.052,-0.232 ± 0.26
ACATTTGTTGATACACCCATAAATTGATATTGCCAACCATATATTGATATCTCTCACACCCATAAATTGATAATTACTCTGATCATAGTCAGACCAACATTGCTACGACCCGTATTCGCACCGACAC,-1.1 ± 0.15,0.0732 ± 0.11
ACATTTGTTGATACAACCATAAAAGGATCATTACACCCATAAATTGATAATTATCACACCCCATTTAACTATAACGCTCTGATCATAGTCAGACCAACATTGCTACGACCCGTATTCGCACCGACAC,-2.29 ± 0.32,1.27 ± 0.23
ACATTTGTTGATACAACCATAAAGTGATATTTACAACCATATATTGATATCTCTCACAACCATAAAGTGATATTTACTCTGATCATAGTCAGACCAACATTGCTACGACCCGTATTCGCACCGACAC,-0.357 ± 0.21,-0.115 ± 0.5
ACATTTGTTGATACAACCATTAAATGATAATTACACCCATATATTGATAATTATCACACCCAATTTAACTATAACGCTCTGATCATAGTCAGACCAACATTGCTACGACCCGTATTCGCACCGACAC,-0.809 ± 0.018,2.04 ± 0.065
ACATTAGTGGATACAACCATAAAATGATAATTACACCCATAAATTCATAATTATCACACCCAATTTAACTATAACGCTCTGATCATAGTCAGACCAACATTGCTACGACCCGTATTCGCACCGACAC,-7.6 ± 0.5,-5.23 ± 1.8
ACATTTGTTGATACACCCATAAATTGATAATTACAACCATAAAATGATAATTATCACACCCATAAATTGATAATTACTCTGATCATAGTCAGACCAACATTGCTACGACCCGTATTCGCACCGACAC,-0.421 ± 0.15,-0.234 ± 0.37
ACATTTGTTGATACAACCATAAAATGATAATTACACCCATAAATTGATAATTATGTCACCCATAAATTGATATTGCCTCTGATCATAGTCAGACCAACATTGCTACGACCCGTATTCGCACCGACAC,-0.72 ± 0.15,0.557 ± 0.054
ACATTTGTTGATACAACCATAAAATGATAATTAATAATTATTTATACACCCATAAATTGATAATTATCACACCCATAAATTGATATTGCCTCTGATCATAGTCAGACCAACATTGCTACGACCCGTA,-3.6 ± 0.11,-0.465 ± 0.37
ACATTTGTCGATACAACCATAAAATGATAATTACACCCATAAATTCATCATTATCACACCCAATTTAACTATAACGCTCTGATCATAGTCAGACCAACATTGCTACGACCCGTATTCGCACCGACAC,-2.26 ± 0.23,1.45 ± 0.14
ACATTTGTTGATACAACCATAAAATGATAATTAATAATTATTTATAATCAGCAACTTCACCCATAAATTGATAATTATCAACAAACGCCCGGTCGCGGTACTCTGATCATAGTCAGACCAACATTGC,-2.15 ± 0.52,0.707 ± 0.87
ACATTTGTTGATACACCCATAAATTGATATTGCCAACCATAAAATGATAATTATCACAACCATAAGTTGATATTTTCTCTGATCATAGTCAGACCAACATTGCTACGACCCGTATTCGCACCGACAC,-0.46 ± 0.23,-0.175 ± 0.71
ACATTTGTTGATACAACCATAAAATGATAATTACAACCATAAGTTGATATTTTTCACAACCATAAAATGATAATTACTCTGATCATAGTCAGACCAACATTGCTACGACCCGTATTCGCACCGACAC,-0.308 ± 0.21,-0.0321 ± 0.022
ACATTTGTTGATACAACCATAAAATGATAATTACACCCATAAATTCATCATTATCACACCCAATTTAACTATAACGCTCTGATCATAGTCAGACCAACATTGCTACGACCCGTATTCGCACCGACAC,-2.36 ± 0.48,1.42 ± 0.023
ACATTTGTTGATACAACCATATATTGATATCTCCAACCATAAAATGATAATTATCAGTGGGTATTTAACTATAACGCTCTGATCATAGTCAGACCAACATTGCTACGACCCGTATTCGCACCGACAC,-1.15 ± 0.24,2.32 ± 0.29
ACATTTGTTGATACACCCATAAATTGATATTGCCAACCATAAAGTGATATTTATCACAACCATATATTGATATCTCCTCTGATCATAGTCAGACCAACATTGCTACGACCCGTATTCGCACCGACAC,-0.78 ± 0.17,0.117 ± 0.34

Sequence,relative integration efficiency (log2) [1],relative integration efficiency (log2) [2]
ACATTTGTTGATACAACCATAAAATGATAATTACTCTGATCATAGTCAGACCAACATTGCTACGACCCGTATTCACCCATAAATTGATAATTATCAGTGGGTATTTAACTATAACGCGCACCGACAC,-2.15 ± 0.4,1.08 ± 0.33
ACATTTGTTGATACAACCATATTATGATAATTACACCCATATTTTGATAATTATCACACCCATATTTTGATATTGCCTCTGATCATAGTCAGACCAACATTGCTACGACCCGTATTCGCACCGACAC,-0.5763 ± 0.0022,-0.471 ± 0.23
ACATTTGTTGATACAACCATAAAATGATAATTAATAATTATTTATAATCAGCAACTTACACCCATAAATTGATAATTATCACACCCATAAATTGATATTGCCTCTGATCATAGTCAGACCAACATTG,-5.34 ± 0.86,-3.43 ± 0.46
ACATTTGTTGATACAACCATAAAATGATAATTACACCCATCAATTGATAATTATCACACCCCATTTAACTATAACGCTCTGATCATAGTCAGACCAACATTGCTACGACCCGTATTCGCACCGACAC,-1.68 ± 0.23,1.6 ± 0.24
ACATTTGTTCATCCAACCATAAAATGATAATTACACCCATAAATTGATAATTATCACACCCAATTTAACTATAACGCTCTGATCATAGTCAGACCAACATTGCTACGACCCGTATTCGCACCGACAC,-1.42 ± 0.29,0.451 ± 0.23
ACATTTGTTGATACAACCATAAAATGATAATTACACCCATAAATTGATAATTATCCCACCCCATTTAACTATAACGCTCTGATCATAGTCAGACCAACATTGCTACGACCCGTATTCGCACCGACAC,-1.3 ± 0.37,2.388 ± 0.023
ACATTTGTGGATCCAACCATAAAATGATAATTACACCCATAAATGGATCATTATCACACCCAATTTAACTATAACGCTCTGATCATAGTCAGACCAACATTGCTACGACCCGTATTCGCACCGACAC,-1.79 ± 0.39,0.845 ± 0.06
ACATTTGTTGATACAACCATATATTGATATCTCCACCCATAAATTGATAATTATCACAACCATAAAGTGATATTTACTCTGATCATAGTCAGACCAACATTGCTACGACCCGTATTCGCACCGACAC,-0.345 ± 0.0079,-0.378 ± 0.45
ACATTTGTTCATCCAACCATAAAATGATAATTACACCCATAAATTCATAATTATCACACCCAATTTAACTATAACGCTCTGATCATAGTCAGACCAACATTGCTACGACCCGTATTCGCACCGACAC,-2.84 ± 0.39,-1.1 ± 0.16
ACATTTGTTGATACCACCATAAAATGATAATTACACCCCTACATTGATAATTATCACACCCAATTTAACTATAACGCTCTGATCATAGTCAGACCAACATTGCTACGACCCGTATTCGCACCGACAC,-3.75 ± 0.28,-0.284 ± 0.22
ACATTTGTTGATACAACCATAAAATGATAATTAATAATTATTTACACCCATAAATTGATAATTATCAACAAACGCCCGGTCGCGGTACTCTGATCATAGTCAGACCAACATTGCTACGACCCGTATT,-2.54 ± 0.21,0.163 ± 0.01
ACATTTGTTGATACAACCATAAAATGATAATTACTCTGCACCCATAAATTGATAATTATCAGTGGGTATTTAACTATAACGATCATAGTCAGACCAACATTGCTACGACCCGTATTCGCACCGACAC,-2.05 ± 0.21,0.872 ± 0.43
ACATTTGTTGATACAACCATAAAATGATAATTACACCACTAAATTGATAATTATCACACCCATAAATTGATATTGCCTCTGATCATAGTCAGACCAACATTGCTACGACCCGTATTCGCACCGACAC,-1.78 ± 0.12,-2.09 ± 0.036
ACATTTGTTGATACAACCATAAAATGATAATTACACCCCTACATTGATAATTATCACACCCAATTTAACTATAACGCTCTGATCATAGTCAGACCAACATTGCTACGACCCGTATTCGCACCGACAC,-2.87 ± 0.33,0.306 ± 0.013
ACATTTGTGGATCCAACCATAAAATGATAATTACACCCATAAATTGATAATTATCACACCCAATTTAACTATAACGCTCTGATCATAGTCAGACCAACATTGCTACGACCCGTATTCGCACCGACAC,-0.789 ± 0.2,2.06 ± 0.17
ACATTTGTTGATACAACCATAAAAGGATTATTACACCCATTAATTGATAATTATCACACCCAATTTAACTATAACGCTCTGATCATAGTCAGACCAACATTGCTACGACCCGTATTCGCACCGACAC,-2.02 ± 0.28,1.27 ± 0.069
ACATTTGTTGATACAACCATAAAATGATAATTACACCCATAAATGTCGCCGGCGACACAAACGCCCGGTCGCGGTAAGAGGATCATAGTCAGACCAACATTGCTACGACCCGTATTCGCACCGACAC,-1.73 ± 0.3,1 ± 0.17
